In patent publication US20020143164:

System: GST-Ras [GST: P08515]
Sequence (P08515 whole entry, looked up): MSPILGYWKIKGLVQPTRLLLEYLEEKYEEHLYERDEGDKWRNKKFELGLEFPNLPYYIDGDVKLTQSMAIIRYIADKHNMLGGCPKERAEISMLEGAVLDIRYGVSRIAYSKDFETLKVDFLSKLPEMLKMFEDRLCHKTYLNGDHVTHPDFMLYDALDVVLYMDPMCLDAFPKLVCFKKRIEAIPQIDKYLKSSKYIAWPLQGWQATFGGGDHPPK

How did the “fold Ras activation in vitro (bound 32P-GTP, against Ras without GRFs set to 1)” value turn out when Flag-tagged full-length RasGRF2 was run?
The value was “the 4.5 fold activation conferred by GRF2, used as a control”.
